{"source": "patent US10323078B2", "about": "“Isolated peptides and fragments thereof from fibrinogen for use as drugs, particularly in skin inflammatory diseases” (Universite Paris Descartes, priority 2015, dated 2019)", "key": {"[1]": {"tested_on": "Pfg", "assay": "Western ligand blot with biotinylated Pfg", "format": "binding, Propionibacterium acnes", "conditions": "biotinylated Pfg 0.1 μg/ml"}, "[2]": {"tested_on": "ThP1 cells", "assay": "IL-1β production by P. acnes-stimulated ThP1 (ELISA)", "format": "cell-based, human", "conditions": "for Inhibition of Interleukine 1 beta (IL-1β) production: ThP1, 0.87 to 7 μM", "protocol": "(§1) For experiences of stimulation with P. acnes, cells were incubated with the P. acnes suspension adjusted at the appropriate concentration, pre-treated for 1 h at 37° C. or not with fibrinogen recombinant peptides Fg1 and Fg2 at the concentrations 0.87, 1.75, 3.5 or 7 μM for the desired period of time at 37° C. in 5% CO2.\n(§2) Human IL-1ß, IL-8, IL-12, hBD-2, and TNF-α protein concentration was measured in the supernatants of stimulated cells using various ELISA Set kits (Ready-Set-Go kit from eBioscience for acne experiments, and for psoriasis experiments the Duo set IL-8 kit from R&D Systems and the BD-2 Human Development (hBD-2) from Peprotech) according to the manufacturer's instructions. We used serial dilutions of recombinant human IL-1ß, IL-8, IL-12 and TNF-α for standard curve. The optical density was determined at 450 nm at a wavelength correction of 540 nm.\n(§3) To assess the efficacy of Fg1 recombinant peptide, the production of O2^∘− and H2O2 by HaCaT cells NHDK, THP-1, MRC5 and HDF stimulated by pretreated P. acnes strains 6919, RON and PIE was measured. The amount of ROS produced was compared to that produced by the stimulated cells with untreated bacteria. Production baseline was obtained by measuring ROS on unstimulated cells. The production of IL-1ß, IL-8, IL-12 and TNF-α was also measured in all conditions cited above. The measurement of the production of ROS is performed by spectrofluorimetry in the presence of specific fluorochromes directly on the monolayer cell. Measurement of cytokine production was performed in parallel on the cell culture supernatant.\n(§4) Two sets of experiments were implemented: 1) The cells were stimulated (18 h at 37° C.) by P. acnes strains previously pretreated with Fg1 and Fg2 peptides at the final concentrations ranging from 0.87 to 7 μM for 1 h at 37° C.; and 2) The cells were pretreated first with Fg1 and Fg2 peptides at the final concentrations ranging from 0.87 to 7 μM for 24 h at 37° C. and stimulated (18 h at 37° C.) by P. acnes strains."}, "[3]": {"tested_on": "NHDK cells", "assay": "IL-8 production by P. acnes-stimulated NHDK (ELISA)", "format": "cell-based, human", "conditions": "0.87 to 7 μM", "protocol": "as §1, §2, §3, §4"}, "[4]": {"tested_on": "MRC5 cells", "assay": "TNF-α production by P. acnes-stimulated MRC5 (ELISA)", "format": "cell-based, human", "conditions": "0.87 to 7 μM", "protocol": "as §1, §2, §3, §4"}, "[5]": {"conditions": "P. acnes 6919, set I, bacteria first pretreated"}, "[6]": {"conditions": "P. acnes 6919, set II, cells first pretreated"}, "[7]": {"conditions": "P. acnes PIE, set I, bacteria first pretreated"}, "[8]": {"conditions": "P. acnes PIE, set II, cells first pretreated"}, "[9]": {"conditions": "P. acnes RON, set I, bacteria first pretreated"}, "[10]": {"conditions": "P. acnes RON, set II, cells first pretreated"}}, "data": [{"molecule": "human fibrinogen: purified commercial human fibrinogen (Sigma), glycoprotein hexamer of Aα, Bß and γ chains", "values": [{"measurement": "Recognition by biotinylated Pfg after electrophoretic separation of fibrinogen", "setting": "[1]; 10 μg per lane, 10% SDS-PAGE", "result": "recognized by Pfg"}]}, {"molecule": "MKRMVSWSFHKLKTMKHLLLLLLCVFLVKSQGVNDNEEGFFSARGHRPLDKKREEAPSLRPAPPPISGGGYRARPAKAAATQKKVERKAPDAGGCLHADPDLGVLC (protein, GST fusion; fragment Fg1, fragment of Bß chain of human fibrinogen having 106 amino acids; recombinant GST-fused peptide expressed in E. coli) MKRMVSWSFHKLKTMKHLLLLLLCVFLVKSQGVNDNEEGFFSARGHRPLDKKREEAPSLRPAPPPISGGGRARPAKAAATQKKVERKAPDAGGCLHADPDLGVLCMKRMVSWSFHKLKTMKHLLLLLLCVFLVKSQGVNDNEEGFFSARGHRPLDKKREEAPSLRPAPPPISGGGYRARPAKAAATQKKVERKAPDAGGCLHADPDLGVLC", "values": [{"measurement": "Inhibition of Interleukine 1 beta (IL-1β) production", "setting": "[2]; [5]", "result": "NO (Inhibition NO: Fg1 has no effect on the production of inflammatory molecule)"}, {"measurement": "Inhibition of Interleukine 1 beta (IL-1β) production", "setting": "[2]; [6]", "result": "NO (Inhibition NO: Fg1 has no effect on the production of inflammatory molecule)"}, {"measurement": "Inhibition of Interleukine 1 beta (IL-1β) production", "setting": "[2]; [7]", "result": "NO (Inhibition NO: Fg1 has no effect on the production of inflammatory molecule)"}, {"measurement": "Inhibition of Interleukine 1 beta (IL-1β) production", "setting": "[2]; [8]", "result": "NO (Inhibition NO: Fg1 has no effect on the production of inflammatory molecule)"}, {"measurement": "Inhibition of Interleukine 1 beta (IL-1β) production", "setting": "[2]; [9]", "result": "NO (Inhibition NO: Fg1 has no effect on the production of inflammatory molecule)"}, {"measurement": "Inhibition of Interleukine 1 beta (IL-1β) production", "setting": "[2]; [10]", "result": "NO (Inhibition NO: Fg1 has no effect on the production of inflammatory molecule)"}, {"measurement": "Effect on the production of IL-1ß", "setting": "[2]; whatever the strain of P. acnes used, production effective only for monocytes", "result": "no effect"}, {"measurement": "Inhibition of Interleukine 8 (IL-8) production", "setting": "[3]; [5]", "result": "pos"}, {"measurement": "Inhibition of Interleukine 8 (IL-8) production", "setting": "[3]; [6]", "result": "pos"}, {"measurement": "Inhibition of Interleukine 8 (IL-8) production", "setting": "[3]; [7]", "result": "pos"}, {"measurement": "Inhibition of Interleukine 8 (IL-8) production", "setting": "[3]; [8]", "result": "pos"}, {"measurement": "Inhibition of Interleukine 8 (IL-8) production", "setting": "[3]; [9]", "result": "pos"}, {"measurement": "Inhibition of Interleukine 8 (IL-8) production", "setting": "[3]; [10]", "result": "pos"}, {"measurement": "Inhibition of Interleukine TNF alpha (TNF-α) production", "setting": "[4]; [5]", "result": "pos"}, {"measurement": "Inhibition of Interleukine TNF alpha (TNF-α) production", "setting": "[4]; [6]", "result": "pos"}, {"measurement": "Inhibition of Interleukine TNF alpha (TNF-α) production", "setting": "[4]; [7]", "result": "pos"}, {"measurement": "Inhibition of Interleukine TNF alpha (TNF-α) production", "setting": "[4]; [8]", "result": "pos"}, {"measurement": "Inhibition of Interleukine TNF alpha (TNF-α) production", "setting": "[4]; [9]", "result": "pos"}, {"measurement": "Inhibition of Interleukine TNF alpha (TNF-α) production", "setting": "[4]; [10]", "result": "pos"}, {"measurement": "Recognition of GST-fused recombinant Bß fibrinogen fragments by biotinylated Pfg", "setting": "[1]; E. coli total protein after IPTG induction, 12.5% SDS-PAGE", "result": "recognized"}]}]}
